From patent publication US20110118131A1 (published 2011) come the findings set out here.

Substitutions are numbered along the chain they refer to. In names and notes the source's numbering stands.

B1: XPA23 light chain N30V (Fab, V domains shown)
VH: EVQLLESGGGLVQPGGSLRLSCAASGFTFSKYFMFWVRQAPGKGLEWVSVISPSGGMTRYADSVKGRFTISRDNSKNTLYLQMNSLRAEDTAVYYCARVGYGGNSDYWGQGTLVTVSS
VL: DIQMTQSPSSVSASVGDRLTIICRASQDIVRWLAWYQQTPGNAPKLLIHSATSLQSGVPSRFSGSGSGTDFTLTINSLQPEDFATYYCQQADSFPLTFGGGTKVEIK
B2: XPA23 light chain R31H (Fab, V domains shown)
VH: B1 VH
VL: B1 VL with V30N, R31H
B3: XPA23 light chain P95F (Fab, V domains shown)
VH: B1 VH
VL: B1 VL with V30N, P95F
B4: XPA23 light chain Q27T (Fab, V domains shown)
VH: B1 VH
VL: B1 VL with Q27T, V30N
B5: XPA23 light chain Q27I (Fab, V domains shown)
VH: B1 VH
VL: B1 VL with Q27I, V30N
B6: XPA23 light chain Q27D (Fab, V domains shown)
VH: B1 VH
VL: B1 VL with Q27D, V30N
B7: XPA23 light chain Q27K (Fab, V domains shown)
VH: B1 VH
VL: B1 VL with Q27K, V30N
B8: XPA23 light chain Q27E (Fab, V domains shown)
VH: B1 VH
VL: B1 VL with Q27E, V30N
B9: XPA23 light chain N30Y (Fab, V domains shown)
VH: B1 VH
VL: B1 VL with V30Y
B10: XPA23 light chain P95H (Fab, V domains shown)
VH: B1 VH
VL: B1 VL with V30N, P95H
B11: XPA23 light chain R31N (Fab, V domains shown)
VH: B1 VH
VL: B1 VL with V30N, R31N
B12: XPA23 light chain P95Y (Fab, V domains shown)
VH: B1 VH
VL: B1 VL with V30N, P95Y
B13: XPA23 light chain N30W (Fab, V domains shown)
VH: B1 VH
VL: B1 VL with V30W
B14: XPA23 light chain R31A (Fab, V domains shown)
VH: B1 VH
VL: B1 VL with V30N, R31A
B15: XPA23 light chain Q27W (Fab, V domains shown)
VH: B1 VH
VL: B1 VL with Q27W, V30N
B16: XPA23 light chain Q27N (Fab, V domains shown)
VH: B1 VH
VL: B1 VL with Q27N, V30N
B17: XPA23 light chain Q27S (Fab, V domains shown)
VH: B1 VH
VL: B1 VL with Q27S, V30N
B18: XPA23 light chain Q27A (Fab, V domains shown)
VH: B1 VH
VL: B1 VL with Q27A, V30N
B19: XPA23 light chain R31K (Fab, V domains shown)
VH: B1 VH
VL: B1 VL with V30N, R31K
B20: XPA23 light chain R31S (Fab, V domains shown)
VH: B1 VH
VL: B1 VL with V30N, R31S
B21: XPA23 light chain Q27H (Fab, V domains shown)
VH: B1 VH
VL: B1 VL with Q27H, V30N
B22: XPA23 light chain Q27V (Fab, V domains shown)
VH: B1 VH
VL: B1 VL with Q27V, V30N
B23: XPA23 light chain Q27F (Fab, V domains shown)
VH: B1 VH
VL: B1 VL with Q27F, V30N
B24: XPA23 light chain Q27G (Fab, V domains shown)
VH: B1 VH
VL: B1 VL with Q27G, V30N
B25: XPA23 light chain R31P (Fab, V domains shown)
VH: B1 VH
VL: B1 VL with V30N, R31P
B26: XPA23 light chain R31F (Fab, V domains shown)
VH: B1 VH
VL: B1 VL with V30N, R31F
B27: XPA23 light chain P95D (Fab, V domains shown)
VH: B1 VH
VL: B1 VL with V30N, P95D
B28: XPA23 light chain Q27L (Fab, V domains shown)
VH: B1 VH
VL: B1 VL with Q27L, V30N
B29: XPA23 light chain P95N (Fab, V domains shown)
VH: B1 VH
VL: B1 VL with V30N, P95N
B30: XPA23 light chain R31Q (Fab, V domains shown)
VH: B1 VH
VL: B1 VL with V30N, R31Q
B31: XPA23 light chain P95E (Fab, V domains shown)
VH: B1 VH
VL: B1 VL with V30N, P95E
B32: XPA23 light chain R31D (Fab, V domains shown)
VH: B1 VH
VL: B1 VL with V30N, R31D
B33: XPA23 light chain P95K (Fab, V domains shown)
VH: B1 VH
VL: B1 VL with V30N, P95K
B34: XPA23 light chain P95Q (Fab, V domains shown)
VH: B1 VH
VL: B1 VL with V30N, P95Q
B35: XPA23 light chain P95S (Fab, V domains shown)
VH: B1 VH
VL: B1 VL with V30N, P95S
B36: XPA23 light chain P95W (Fab, V domains shown)
VH: B1 VH
VL: B1 VL with V30N, P95W
B37: XPA23 light chain R31E (Fab, V domains shown)
VH: B1 VH
VL: B1 VL with V30N, R31E
B38: XPA23 light chain P95R (Fab, V domains shown)
VH: B1 VH
VL: B1 VL with V30N, P95R
B39: XPA23 light chain Q27R (Fab, V domains shown)
VH: B1 VH
VL: B1 VL with Q27R, V30N
B40: XPA23 light chain Q27P (Fab, V domains shown)
VH: B1 VH
VL: B1 VL with Q27P, V30N
B41: XPA23 light chain R31I (Fab, V domains shown)
VH: B1 VH
VL: B1 VL with V30N, R31I
B42: XPA23 light chain R31L (Fab, V domains shown)
VH: B1 VH
VL: B1 VL with V30N, R31L
B43: XPA23 light chain R31G (Fab, V domains shown)
VH: B1 VH
VL: B1 VL with V30N, R31G

For the assay, the target named is T1, IL-1β (UniProt P01584 117-269).
T1 construct: Antigen immobilised on the Biacore chip
The experiment in a line: Biacore, periplasmic extract.
On to B1, for which the “fold difference in affinity vs original” value stood at 0.89 fold.

With B2, the binding result is on record as “no binding”.

Turning to B3, the “fold difference in affinity vs original” value was found to be 0.98 fold.

Consider B4, for which the “fold difference in affinity vs original” value is 0.64 fold.

On to B5, for which the “fold difference in affinity vs original” value turned out to be 0.82 fold.

Regarding B6, the “fold difference in affinity vs original” value amounted to 1.07 fold.

On to B7, for which the binding result is reported as “no binding”.

Turning to B8, the “fold difference in affinity vs original” value came out at 1.08 fold.

Turning to B9, the “fold difference in affinity vs original” value stood at 1.4 fold.

For the molecule B10, the binding result is “no binding”.

B11: the “fold difference in affinity vs original” value came out at 0.38 fold.

Take B12: the binding result is listed as “no binding”.

B13: the “fold difference in affinity vs original” value came out at 1.06 fold.

In the case of B14, the “fold difference in affinity vs original” value turned out to be 8.48 fold.

B15: the binding result is recorded as “no binding”.

In the case of B16, the binding result is reported as “no binding”.

For the molecule B17, the “fold difference in affinity vs original” value was 3.3 fold.

As to B18, the “fold difference in affinity vs original” value stood at 1.47 fold.

As to B19, the “fold difference in affinity vs original” value was determined as 1.18 fold.

For the molecule B20, the “fold difference in affinity vs original” value amounted to 0.44 fold.

In the case of B21, the “fold difference in affinity vs original” value stood at 1.09 fold.

With B22, the binding result is recorded as “no binding”.

As to B23, the “fold difference in affinity vs original” value stood at 2.96 fold.

Regarding B24, the binding result is listed as “no binding”.

Turning to B25, the binding result was “no binding”.

B26: the “fold difference in affinity vs original” value is 0.92 fold.

As to B27, the “fold difference in affinity vs original” value stood at 1.32 fold.

For the molecule B28, the “fold difference in affinity vs original” value worked out at 0.83 fold.

In the case of B29, the binding result was “no binding”.

Turning to B30, the “fold difference in affinity vs original” value was 0.27 fold.

With B31, the “fold difference in affinity vs original” value amounted to 0.88 fold.

Consider B32, for which the “fold difference in affinity vs original” value amounted to 11.1 fold.

Turning to B33, the binding result is reported as “no binding”.

As for B34, the binding result is listed as “no binding”.

Turning to B35, the “fold difference in affinity vs original” value was found to be 4.05 fold.

Turning to B36, the binding result is recorded as “no binding”.

Regarding B37, the binding result was “no binding”.

As to B38, the binding result is given as “no binding”.

Consider B39, for which the “fold difference in affinity vs original” value is 0.89 fold.

For B40, the binding result is listed as “no binding”.

Turning to B41, the “fold difference in affinity vs original” value was determined as 0.68 fold.

Take B42: the “fold difference in affinity vs original” value was found to be 0.51 fold.

With B43, the “fold difference in affinity vs original” value was determined as 0.92 fold.
